Tests used:
[1] = biological target: GST-rat α2 I domain fusion protein (rat); assay: Eu-TMC-2206 on immobilized GST-α2 I domain at 37 °C, Scatchard
[2] = biological target: GST-rat α2 I domain fusion protein (rat); assay: SPR (Biacore 2000), antibody captured, GST-α2 I domain in solution
[3] = biological target: human platelet α2β1 integrin (immobilized on microtiter plates) (human) (UniProt P17301); assay: competition with Eu-TMC-2206 on human platelet α2β1-coated plate
Sequence of human platelet α2β1 integrin (immobilized on microtiter plates) (human) (P17301 30-1181 E534K limits assumed, chain 1 of 2): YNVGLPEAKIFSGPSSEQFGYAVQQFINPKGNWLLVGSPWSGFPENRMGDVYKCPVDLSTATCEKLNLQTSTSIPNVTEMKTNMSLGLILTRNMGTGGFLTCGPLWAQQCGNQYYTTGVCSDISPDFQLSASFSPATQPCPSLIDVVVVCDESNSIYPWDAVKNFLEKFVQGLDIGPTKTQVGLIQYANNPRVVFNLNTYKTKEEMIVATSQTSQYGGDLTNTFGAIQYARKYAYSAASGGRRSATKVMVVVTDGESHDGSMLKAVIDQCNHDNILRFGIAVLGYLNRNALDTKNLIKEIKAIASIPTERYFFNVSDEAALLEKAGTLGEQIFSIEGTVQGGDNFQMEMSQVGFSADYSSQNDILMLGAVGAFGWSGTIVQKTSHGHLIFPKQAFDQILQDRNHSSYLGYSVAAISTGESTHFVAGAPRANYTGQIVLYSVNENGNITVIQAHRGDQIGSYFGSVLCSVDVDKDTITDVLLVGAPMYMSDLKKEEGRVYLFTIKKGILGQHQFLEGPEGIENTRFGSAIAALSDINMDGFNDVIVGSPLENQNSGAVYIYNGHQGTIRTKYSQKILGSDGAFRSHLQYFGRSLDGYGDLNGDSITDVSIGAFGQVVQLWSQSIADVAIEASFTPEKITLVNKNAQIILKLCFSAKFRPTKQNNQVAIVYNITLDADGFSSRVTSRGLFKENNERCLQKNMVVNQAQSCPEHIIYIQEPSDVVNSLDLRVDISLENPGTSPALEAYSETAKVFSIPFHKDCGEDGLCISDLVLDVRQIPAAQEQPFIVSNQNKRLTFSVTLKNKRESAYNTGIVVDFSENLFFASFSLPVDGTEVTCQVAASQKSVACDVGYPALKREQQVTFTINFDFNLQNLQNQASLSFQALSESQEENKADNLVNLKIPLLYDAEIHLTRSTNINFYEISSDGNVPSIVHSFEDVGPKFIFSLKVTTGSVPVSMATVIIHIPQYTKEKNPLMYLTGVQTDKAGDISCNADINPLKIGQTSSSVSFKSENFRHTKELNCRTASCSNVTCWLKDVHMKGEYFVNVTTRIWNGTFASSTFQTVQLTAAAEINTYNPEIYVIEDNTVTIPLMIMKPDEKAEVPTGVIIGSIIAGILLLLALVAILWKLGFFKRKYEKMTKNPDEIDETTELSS
Sequence of human platelet α2β1 integrin (immobilized on microtiter plates) (human) (chain, as listed by the source limits assumed, chain 2 of 2): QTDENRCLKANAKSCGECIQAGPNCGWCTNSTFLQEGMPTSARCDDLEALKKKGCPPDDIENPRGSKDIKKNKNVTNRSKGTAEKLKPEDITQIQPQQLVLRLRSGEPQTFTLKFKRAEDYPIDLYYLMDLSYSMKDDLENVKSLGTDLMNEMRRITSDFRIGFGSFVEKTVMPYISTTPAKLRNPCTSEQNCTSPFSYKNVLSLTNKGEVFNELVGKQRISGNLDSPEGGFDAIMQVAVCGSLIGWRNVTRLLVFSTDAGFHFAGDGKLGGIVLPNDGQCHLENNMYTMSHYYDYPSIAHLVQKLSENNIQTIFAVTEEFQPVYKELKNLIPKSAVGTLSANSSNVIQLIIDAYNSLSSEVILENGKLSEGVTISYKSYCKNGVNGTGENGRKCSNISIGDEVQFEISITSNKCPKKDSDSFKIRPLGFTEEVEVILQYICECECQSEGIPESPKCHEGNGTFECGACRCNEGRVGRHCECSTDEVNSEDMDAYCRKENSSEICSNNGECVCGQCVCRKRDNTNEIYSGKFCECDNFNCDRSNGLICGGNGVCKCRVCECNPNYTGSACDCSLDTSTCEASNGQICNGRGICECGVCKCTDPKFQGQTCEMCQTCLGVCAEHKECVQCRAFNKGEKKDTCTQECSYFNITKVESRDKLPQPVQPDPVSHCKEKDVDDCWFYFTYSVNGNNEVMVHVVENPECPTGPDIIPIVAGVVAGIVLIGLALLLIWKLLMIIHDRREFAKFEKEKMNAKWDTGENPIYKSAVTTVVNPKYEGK

Kd [1] [nM]	fold decrease compared to human α2 I domain [1] [fold]	Kd [2] [nM]	koff [2] [s⁻¹]	kon [2] [M⁻¹ s⁻¹]	fold shift in potency relative to the mouse-human chimeric TMC-2206 antibody [3] [fold]	Binder
1.3	6	2	0.00082	420000	–	TMC-2206 (antibody, mouse IgG1, V domains shown) VH: QVQLKESGPGLVAPSQSLSITCTVSGFSLTNYGIHWVRQPPGKGLEWLGVIWARGFTNYNSALMSRLIITKDNSQSQVFLKMNSLQPDDSATYFCARANDGVYYAMDYWGQGTSVTVSS VL: QFVLTQSPAFLSASPGEKVTMTCSANSSVNYIHWYQQKSGTSPKKWIYDTSKLASGVPVRFSGSGSGTSYSLTISSMETEDAATYYCQQWTTNPLTFGAGTRVELK
–	–	–	–	–	> 1600	TMC-2206 VH D100A variant antibody (antibody, part only; not given: Light chain, constant regions, V domains shown, part only) VH: QVQLKESGPGLVAPSQSLSITCTVSGFSLTNYGIHWVRQPPGKGLEWLGVIWARGFTNYNSALMSRLIITKDNSQSQVFLKMNSLQPDDSATYFCARANAGVYYAMDYWGQGTSVTVSS

Reference: patent US20070128190A1
